This passage reports Kd results from the Immune Epitope Database (IEDB).

Assay [1] deals with HLA-A*30:01. Briefly: IEDB peptide-MHC binding, purified MHC/competitive/radioactivity; filed as Kd, often an IC50 or EC50 that approximates it; ≥ and ≤ were set here for values at or beyond the usual limits of such assays.
The target in assay [2] is HLA-B*35:01. Described as above.
The target in assay [3] is HLA-B*53:01. The description is as above.
Assay [4] addresses HLA-B*51:01. Described as above.
For assay [5], the target named is HLA-B*07:02. The description is as above.
The target in assay [6] is HLA-A*68:01. The description is as above. The settings on record: source organism: Dengue virus 2 Jamaica/1409/1983.
Assay [7] concerns the target HLA-A*24:02. Described as above.
Assay [8] has as its target HLA-B*15:01. The description is as above.
Assay [9] has as its target HLA-A*23:01. The assay is described as above.
The target in assay [10] is HLA-A*01:01. Described as above.
In assay [11] the target is HLA-A*32:01. The assay is described as above.
Assay [12] deals with HLA-A*30:02. Described as above.
Assay [13] addresses HLA-A*29:02. The description is as above.
Assay [14] addresses HLA-A*26:01. Described as above.
Assay [15] deals with HLA-A*24:03. Briefly: IEDB peptide-MHC binding, purified MHC/direct/fluorescence; filed as Kd, often an IC50 or EC50 that approximates it; ≥ and ≤ were set here for values at or beyond the usual limits of such assays. Particulars: source organism: Mammarenavirus lassaense.
Setting [16] is: source organism: Dengue virus 4 Philippines/H241/1956.
[17] abbreviates: source organism: Dengue virus 2 Jamaica/1409/1983.
Setting [18] is: source organism: Dengue virus 3 Martinique/1243/1999.
Setting [19] is: source organism: Vaccinia virus WR.
Setting [20] is: source organism: Dengue virus 1 Singapore/S275/1990.
The mark [21] stands for this setting: source organism: Dengue virus 1 Brazil/97-11/1997.
The mark [22] stands for this setting: source organism: Lassa virus Josiah.
[23] abbreviates: source organism: Mammarenavirus machupoense.
[24] abbreviates: source organism: Dengue virus 4 Dominica/814669/1981.

The Kd is a measure of binding affinity in units of concentration. As to KLRPKWLDA, the equilibrium dissociation constant (Kd) in assay [1] (setting [16]) turned out to be 0.0327 µM.
Consider EPKEGTKKLM, for which the equilibrium dissociation constant (Kd) in [2] (setting [17]) is no less than 54.4 µM.
For the sequence EPWLKNNQF, the equilibrium dissociation constant (Kd) in [2] (setting [18]) was 1.03 µM; in assay [3] (setting [18]), 2.58 µM.
On to RIKQQGIFG, for which, in assay [1] (setting [18]), the equilibrium dissociation constant (Kd) was determined as 0.0199 µM.
Take KYRYGTFLY: in assay [1] (setting [19]), the Kd is 0.00107 µM.
As for IPKIYGGPI, the equilibrium dissociation constant (Kd) came out at 0.63 µM in assay [4] (setting [20]) and 0.0142 µM in assay [5] (setting [20]).
For MATFKMRPMF, the Kd in assay [1] (setting [21]) came to 1.79 µM.
FTMRLLSPVR: the figures for the Kd in assay [1] (setting [17]) and in [6] were 9.07 µM and 0.00773 µM, respectively.
Take YAQMWSLMYF: the Kd in assay [7] (setting [18]) was determined as 0.247 µM; in assay [3] (setting [18]), 0.106 µM; in [8] (setting [18]), 0.00991 µM; in assay [9] (setting [18]), 0.594 µM; in assay [4] (setting [18]), 12.9 µM.
Consider IWGRKSWPLN, for which, in assay [1] (setting [21]), the Kd came out at 2.05 µM.
Take IPEGRVIDL: the Kd in assay [5] (setting [18]) came out at 0.14 µM.
FALLAGFMAY: the Kd in assay [10] (setting [16]) came to 13.5 µM; in [2] (setting [16]), 0.0133 µM; in assay [3] (setting [16]) it was 3.15 µM; in assay [8] (setting [16]), 0.00641 µM.
Take CWLVSNGSY: the Kd is 13.9 µM in assay [10] (setting [22]); 18.8 µM in assay [11] (setting [22]); 16.9 µM in [1] (setting [22]); 0.0063 µM in assay [12] (setting [22]); 0.543 µM in assay [13] (setting [22]); no less than 34.4 µM in assay [14] (setting [22]).
RYPIDPFLL: the Kd in [15] amounted to 0.0056 µM.
For the sequence MTRDPLYIY, the equilibrium dissociation constant (Kd) in assay [1] (setting [19]) was 0.0169 µM.
For LALFLAHYI, in assay [4] (setting [18]), the Kd was determined as 0.342 µM.
Turning to YKELCDAVY, the equilibrium dissociation constant (Kd) was 4.06 µM in [10] (setting [23]); no less than 77.8 µM in [11] (setting [23]); no less than 77.5 µM in [7] (setting [23]); no less than 54.3 µM in assay [1] (setting [23]); 1.42 µM in [12] (setting [23]); 3.2 µM in assay [13] (setting [23]). Further, the equilibrium dissociation constant (Kd) in [14] (setting [23]) was no less than 77.9 µM; in assay [9] (setting [23]), no less than 40.5 µM.
As for TPQDNQLTYV, the Kd in [4] (setting [17]) came out at 16.4 µM; in assay [5] (setting [17]), 1.33 µM.
As for MAVFKMSPGY, the figures for the Kd in assay [2] (setting [16]) and in [12] (setting [16]) were 0.667 µM and 0.501 µM, respectively.
IIKSSYVFK: the dissociation constant Kd in [1] (setting [19]) was 0.0109 µM.
Regarding CTNFKTQLV, the dissociation constant (Kd) in [10] (setting [23]) is 1.15 µM; in assay [11] (setting [23]), no less than 77.8 µM; in assay [7] (setting [23]) it was no less than 77.5 µM; in assay [1] (setting [23]), 1.04 µM; in assay [12] (setting [23]), 2.29 µM; in [13] (setting [23]), 4.46 µM. Further, the values for the Kd in [14] (setting [23]) and in assay [9] (setting [23]) were 13.2 µM and no less than 77.7 µM, respectively.
Regarding TPRGAVMDII, the Kd in [4] (setting [24]) was 1.35 µM; in assay [5] (setting [24]), 0.00805 µM.
Turning to SPAATQKAAL, the equilibrium dissociation constant (Kd) in assay [5] (source organism: Dengue virus 4 Singapore/8976/1995) was determined as 0.00366 µM.
